# Results taken from patent publication US20160053277A1, “Compositions Having Dicamba Decarboxylase Activity and Methods of Use” (PIONEER HI-BRED INTERNATIONAL, INC., priority 2013, published 2016).
# B1: 21 (protein, listed as Agrobacterium tumefaciens)
# chain: MAQGKVALEEHFAIPETLQDSAGFVPGDYWKELQHRLLDIQDTRLKLMDAHGIETMILSLNAPAVQAIPDRKKAIEIARRANDVLAEECARRPDRFLAFAALPLQDPDAATQELQRCVNDLGFVGALVNGFSQEGDGQTPLYYDLPQYRPFWGEVEKLDVPFYLHPRNPLPQDSRIYDGHPWLLGPTWAFAQETAVHALRLMASGLFDAHPRLNIILGHMGEGLPYMMWRIDHRNAWVKLPPRYPAKRRFVDYFNENFHITTSGNFRTQTLIDAILEIGADRILFSTDWPFENIDHASDWFNATTIAEADRVKIGRTNARRLFKLDGR
# B2: 22 (protein, listed as Staphylococcus epidermidis)
# chain: MAKSINFEEHYVVDDIQKETMKYMSSDPNGVPMQTMLKGLEQKSGFTNADDITKHDERIKFMDEHDVEMQVLSYGNGAPSNLEGERAIELCQQANDTLAKYVNEHPDRFVGFATLPINEPQAAVEEFKRCIKELGFKGALIMGHPKNGFLDQDQYDDLFATAEALNVPIYLHPSPVQSDVYQAYYKGNYSDVTAATFACFGYGWHVDVGIHAIHLVLSGVFDRHPNLNMIIGHWGEFVPFFLERMDDILFADHLEHPISYYFKNNFYITPSGMLTKPQFDLVKAEVGVDRILYSADYPYVEPDKLGTFLDELDLTEEEKEKISYKNGAKLLGLEK
# B3: 26 (protein, listed as Variovorax paradoxus)
# chain: MATHMAPMKNKIALEEHFAIDLTIADSQVYARPEVWQGLKSNLLDFEQQRLEKMDEWGTEFSILSLNSPAVQGIPDAKRAIEVAQRANDVLAEQVKRHPTRFGGFAALPMQDPEASARELERCVNQLGFHGFLVNGFSQVGDENIVVYYDDARFNDFWTAAAALKKPFYMHPRDPLLAREPIYDGAHWLTGPTWAFAMETAIHALRLMSSGMFDRHPALQMILGHFGEGIPFNIWRVDHILRKGRRGMPCDKEIGEYLRSNVHITTSGNFRTPTLLSTMLEVGSDRIMYSVDYPFEKHEDAARWFDTCEISENDRQKIGRDNARKLFGLK
# B4: 29 (protein, listed as Pseudovibrio sp.)
# chain: MAGRRDFLRKSVAAGVGLTAAAQLSAGGAQATVPDTSNIPLITLEEHFTTPELQSKNTSGDKRLFSGGGSRPELLDVGAGRIADMDEAGIDIQVLSTVTPGASKITGAEGVEFTRKFNTWIAEEVIAAYPNRFRAFATLPLSSPEAAADELERSVREYGFVGTMTYGPIDGKFLDHADYAPLLARAEALGVPIYIHPNWPSPTAMQAYYDGLGDDLTSRILSGPGYGWHQEIAVQCLRLIVGGVFDRFPNLQIVVGHMGEGLPFYYWRVGEDLDRIAQKRLQKPVQQYFHDNLWITTSAFFRDELLNLALATMGEDRVMFSVDYPMASAKVGADWLRAADIPLATKEKIGSKNAMKLLGIDKI
# B5: 37 (protein, listed as Burkholderia gladioli)
# chain: MATFSNVKKIALEEHFAIAETIEDSAGFVPPDDWVELRGRLLDIQERRLAEMDRAGIELMVLSLNAPAVQAIRDPRQAVELARRANDYLAEQVARRPDRFRAFAALPMQAPEQAIREAERCVRELGFVGALVNGFSEAEDGAELYYDLPRYRPFWAALEALEVPFYLHPRNPLAGRAPIYDGHSWLMGPTWAFGQETAVHALRLMGSGLFDAHPRLQIILGHMGEGLPYSMWRVDNRNAWVSAKPNYPAEKPIAEYFRNNFWLTTSGNFRTQTLIDAMLEIGSDRILFSADWPFENMDHAADWFDHASISENDRIKIGRGNAERLLKLGR
# B6: 38 (protein, listed as Variovorax paradoxus)
# chain: MAQGKIGLEEHFAIPQTLQDSAGFVPGVYWKELSSRLLDIHDGRLRQMDEHGMEMMILSLNAPAVQAVADPVKAYELAVRANDFLAEQVAKRPDRFQAFAALPMQDPEKATQELERCMSVLGFRGALVNGFSQVGTPDNVAYYDAPQYAPFWAAAERLDAPFYLHPRNPIASWAQIYEGHPWLLGPTWAFAQETAVHALRLMASGLFDRHPGLKIILGHLGEGLPYNMWRVDHRNAWVKAPKGYPAKRKLCEYFQENFYLTTSGNFRTQTLIDAMLEVGSDRILFSTDWPFENIDHASNWFNDTSISEADRKKIGRTNAMSLFKLA
# B7: 39 (protein, listed as Agrobacterium fabrum)
# chain: MAQGKVALEEHFAIPETLQDSAGFVPGDCWTELQHRLLDIQDTRLKLMDAHGIETMILSLNAPAVQAIPDKTKAIEIARRANDALAEECAKRPDRFLAFAALPLQDPDAATQELRRCVNDLGFVGALVNGFSQEGDGQTPLYYDLPQYRPFWGEVEKLDVPFYLHPRNPLPQDSRIYDGHPWLLGPTWAFAQETAVHALRLMASGLFDEHPRLDIILGHMGEGLPYMMWRIDHRNAWVKLPPRYPAKRRFVDYFNENFHITTSGNFRTQTLIDAILEIGADRILFSTDWPFENIDHASDWFHATSIAEADRVKIGRTNARRLFKLDGR
# B8: 40 (protein, listed as Rhodococcus jostii)
# chain: MAQGKIALEEHFAIPETLNDSAGFVPGTYWDELQARLLDIQDVRLKLMDEHNIETMILSLNAPAVQAIPERERAIDIARRANDVLAEECAKRPDRFRGFAALPLQDPDAAAEELRRCVTELGFVGALVNGFSQSATVDGGSTPLYYDLPRYRPFWAEVERLDVPFYLHPRNPLNQDARIYEGHPWLLGPTWAFAQETAVHALRLMASGLFDEHPGLRIVLGHMGEGIPAMLWRIDHRNAWVDVPPAYPAKRRMVDYFTENFFVTTSGNFRTQTLIDLLLELGSERVMFSTDWPFENINHAAEWFDAASISEADRLKIGRTNAATLFKLDR
# B9: 42 (protein)
# chain: MAQGKIALEEHFAIPDTLQDSAGFVPGDYWKELSARLLDIHEQRLMQMDAYGIEKMILSLNAPAVQAIPDKAKALEISRRANDFLAEQCARNPDRFLGFAALPLQDPDAATAELQRCVKTLGFVGALVNGFSQEGDGVTPLYYDLPQYRGFWAEVEKLAVPFYLHPRNPLPQDSRIYAGHPWLMGPTWAFAQETAVHALRLVGSGLFDDHPALRIILGHMGEGLPYMMWRIDNRNAWVKVAPNYPAKRRIADYFNENFYITTSGNFRTQSLVDAMLEIGADRILFSTDWPFENIDHASDWFDTATISEADRLKIGRTNAATLFNLES
# modifications: Agrobacterium radiobacter
# B10: 45 (protein)
# chain: MANDDLAEVIAAHPDRFAGFAALPMRDPQAAAVELQRAVGTHGFCGAMINGLIEGRFLDDPAFAPLLSTAADLGVPLYLHPSFPPPQVAEIYFGGLAPVLGDLLATAGWGWHAETALHVLRLVATGVFDRLPELWVIVGHMGEMIPFALARIDTVLSPVAQLRQPVAQYFQTNVWFTTSGYTTFPPLQCALSTVGIDRLIFSVDYPYTDNTSARALLDTAPISPVDREKLAHGTVEALLRV
# modifications: Mycobacterium sp
# B11: 3 (protein, listed as Lactobacillus plantarum)
# chain: MAKLITVEEHFESAAVTAAMRQAVGNAVLPAVSPALRQYMRDNLPSPAIMQDTQHERLAFMAQYGIDMQVLSYGNSSPQNLSPEQAVPLSQLANDELAKAVVAHPDRYAGLAVLPVGDPQAAVAELNRAVTTLGLRGVLLKGNYQNKFFDEPFFLPIFEAAAALDVPVYFHPSFIPQAVTSHYFESNQWSDVVTGILSSAGYGWHMDVGIQVIRMIASGIFDKLPGLKLISGHWGELVPLFLERLDDELTTYTDLQYPFSTYYRHNVYVTPSGILSAPQLQFMLAEMGADHLMYSIDYPYKQPETSGSFLDIADLTDEQRAQIAFGTATTLFKL
# B12: 59 (protein)
# chain: MAPSVIDAHAHFLPGSLVTALRSRSDAPDIRTDSNGGESFGIYRTRMPYGRTYDALDVRLARMDELGVDRQILSLPGLFGIDSRPVSQALPLVRAFNDGVADLVRKHPDRFSGIAALPLADLDAAQEEYRRARGDLGLSGLILPGDTFVSVAAAERVRPLFELAATIGGLIFVHPGPLPDETGSAVDAPAPHTDSVVHRRVTVDIQNRMTEVMVTLALTDFLAPYPSVPVQVANLGGSLPFVIERMDHVYALRNPEAPPPSLSLRSLYVDAASLGPRAIALAAEVYGADRVLFGSDYPIFDDGRCLDAVRQTRLSPDARALIAGGNAARMLTQT
# modifications: alpha proteobacterium
# B13: 60 (protein, listed as Catenulispora acidiphila)
# chain: MARGFVRTAVVPGFWDAGWRGAGQPGGMRVDVHAHLFPAAYLDLLDDFRQDGGVGTREVRALGGGDGERELRLRLAAMDAVGVDVQLLSTCPQGPYTGDPTAAVEAARCANVALAQTVAQYPERLRALAALPLPHILASVDELNRAMEQDGMLGAAVGTSILGRPLSHPDFEPLFAALNRRKGVLFVHPIGESAGSPLMQASKLDRVIGYAAEVSTAILQLFQAGLTVKYPDIRIIAPHMGGYLPFLIQRLDRHRDWYLPKDAPSAGQLMRGIAYDTANPLPAALRLTAEVVGPERLLLGTDYPFEQGPSLRDHIEYILAAGLPEAQAKMIVDVNAADFLDMRSGAEQPPV
# Assay: Saturation mutagenesis of SEQ ID NO:109: dicamba decarboxylation activity of point mutants (carbon dioxide released)
# Settings: decarboxylation activity (carbon dioxide released) of point mutant compared with unmutated backbone protein; backbone SEQ ID NO: 109
row,Molecule,Fold Activity
1,B1,1.9
2,B2,1.6
3,B3,1.2
4,B4,1.5
5,B5,1.6
6,B6,1.8
7,B7,1.6
8,B8,1.4
9,B9,1.7
10,B10,1.7
11,B11,0.9
12,B12,0.9
13,B13,1.6

# Assay: 14C assay with IPTG-induced recombinant E. coli cells: 14CO2 captured from [14C]-carboxyl-labeled dicamba
# Settings: among the 108 sequences tested, recombinant E. coli cells
row,Molecule,decarboxylation activity of dicamba
1,B1,showed decarboxylation activity of dicamba
2,B2,showed decarboxylation activity of dicamba
3,B3,showed decarboxylation activity of dicamba

# Same assay, conditions: dicamba decarboxylation activity of the protein of the given SEQ ID NO; High / Low / No
row,Molecule,Enzymatic Detection level
1,B1,High
2,B2,High
3,B3,High
4,B4,No
5,B5,Low
6,B6,Low
7,B7,No
8,B8,Low
9,B9,Low
10,B10,No
11,B11,Low
12,B12,No
13,B13,No

# Same assay, conditions: induced recombinant E. coli cells, [14C]-carboxyl-labeled dicamba, 14CO2 capture
row,Molecule,Dicamba Decarboxylase Activity
1,B1,High
2,B2,High
3,B3,High
4,B4,No
5,B5,Low
6,B6,Low
7,B7,No
8,B8,Low
9,B9,Low
10,B10,No
11,B11,Low
12,B12,No
13,B13,No
